Source: patent publication US10597674B2, “HPPD variants and methods of use” (BASF Agricultural Solutions Seed, US LLC, priority 2015, dated 2020)

Legend:
[1] = system: E. coli cells expressing an HPPD polypeptide; test: Brown color bioassay in liquid culture, residual brown color formation (BCF), OD440 after 96 hours; format: cell-based; details: for Control BCF OD440nm: brown color formation in absence of Cmpd. 1, culture supernatant after 96 hours, 5 mM HPP; for Residual BCF OD440nm [%]: brown color formation with Cmpd. 1 (1000 μM) relative to without, after 96 hours
Description: In an additional experiment, mutant HPPD polypeptides were analyzed using the principle of a colorimetric brown color assay (as, for example, described in U.S. Pat. No. 6,768,044). Bacterial cells expressing the HPPD polypeptides according to this invention were assayed in 96 well plate format (Nunc® 96 DeepWell™ plate, Sigma-Aldrich, St. Louis, USA) for HPPD polypeptides with improved HPPD inhibitor herbicide tolerance.
E. coli cells were grown in liquid LB medium (Carl Roth GmbH+Co. KG, Karlsruhe, Germany) containing the selection agent for the expression vector pSE420(RI)NX (WO2014/043435) and 5 mM para-hydroxyphenylpyruvate (HPP; Sigma-Aldrich, St. Louis, USA), in the presence of absence of the HPPD inhibitor herbicide e.g. Cmpd. 1 (1000 μM). An overnight culture of E. coli culture expressing one of the respective HPPD polypeptides according to this invention were adjusted to an OD600 of 0.3-0.5 in a final volume of 500 μL and incubated at 30 degree Celsius. Residual brown color formation was determined by measuring the brown color formation (BCF) in the presence and absence of Cmpd. […] Therefore, after 96 hours the culture was centrifuged and the supernatant of the culture was used to measure the optical density of the soluble brown pigment formation at 440 nm (OD440 nm).

[2] = system: transgenic soybean T0 events; test: Additional greenhouse trials of T0 soybean events, leaf damage score 0-100 as percentiles; format: in vivo; details: Cmpd. 1 300 g AI/ha, five days
In short: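 Independent T0 events (21 to 94 per construct, single cassette insertion) expressing mutant HPPD were sprayed with HPPD inhibitor herbicide in the greenhouse. Leaf damage scored 5 days after application from 0 (no damage) to 100 (complete bleaching). Scores reported as percentile distributions (25th, median, 75th) per construct.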

B1: 97 (protein)
chain: MADLYENPMGLMGFEFIEFASPTPGTLEPIFEIMGFTKVATHRSKNVHLYRQGEINLILNNEPNSIASYFAAEHGPSVCGMAFRVKDSQKAYNRALELGAQPIHIDTGPMELNLPAIKGIGGAPLYLIDRFGEGSSIYDIDFVYLEGVERNPVGAGLKVIDHLTHNVYRGRMVYWANFYEKLFNFREARYFDIKGEYTGLTSKAMSAPDGMIRIPLNEESSKGAGQIEEFLMQFNGEGIQHVAFLTDDLVKTWDALKKIGMRFMTAPGDRYYEMLEGRLPDHGEPVDQLQARGILLDGSSVEGDKRLLLQIFSETLMGPVFFEFIQRKGHSGFGPDSFKVLFESKERDQVRRGVLTAD
modifications: mutant HPPD polypeptide
[1]
  Control BCF OD440nm: 1.54
  Residual BCF OD440nm [%]: 49%

B2: 99 (protein)
chain: MADLYENPMGLMGFEFIEFASPTPGTLEPIFEIMGFTKVATHRSKNVHLYRQGEINLILNNEPNSIASYFAAEHGPSVCGMAFRVKDSQKAYNRALELGAQPIHIDTGPMELNLPAIKGIGGAPLYLIDRFGEGSSIYDIDFVYLEGVERNPVGAGLKVIDHLTHNVYRGRMVYWANFYEKLFNFREARYFDIKGEYTGLTSKAMSAPDGMIRIPLNEESSKGAGQIEEFLMQFNGEGIQHVAFLTDDLVKTWDALKKIGMRFMTAPGDEYYEMLEGRLPDHGEPVDQLQARGILLDGSSVEGDKRLLLQIFSETLMGPVFFEFIQRKGDDGFGPDSVKRLFESVERDQVRRGVLTAD
modifications: mutant HPPD polypeptide
[1]
  Control BCF OD440nm: 1.52
  Residual BCF OD440nm [%]: 87%

B3: 100 (protein)
chain: MADLYENPMGLMGFEFIEFASPTPGTLEPIFEIMGFTKVATHRSKNVHLYRQGEINLILNNEPNSIASYFAAEHGPSVCGMAFRVKDSQKAYNRALELGAQPIHIDTGPMELNLPAIKGIGGAPLYLIDRFGEGSSIYDIDFVYLEGVERNPVGAGLKVIDHLTHNVYRGRMVYWANFYEKLFNFREARYFDIKGEYTGLTSKAMSAPDGMIRIPLNEESSKGAGQIEEFLMQFNGEGIQHVAFLTDDLVKTWDALKKIGMRFLTAPGDEYYEMLEGRLPDHGEPVDQLQARGILLDGSSVEGDKRLLLQIFSETLMGPVFFEFIQRKGHDGFGPDSFKVLFEQMERDQVRRGVLTAD
modifications: mutant HPPD polypeptide
[1]
  Control BCF OD440nm: 2.48
  Residual BCF OD440nm [%]: 33%

B4: 106 (protein)
chain: MADLYENPMGLMGFEFIEFASPTPGTLEPIFEIMGFTKVATHRSKNVHLYRQGEINLILNNEPNSIASYFAAEHGPSVCGMAFRVKDSQKAYNRALELGAQPIHIDTGPMELNLPAIKGIGGAPLYLIDRFGEGSSIYDIDFVYLEGVERNPVGAGLKVIDHLTHNVYRGRMVYWANFYEKLFNFREARYFDIKGEYTGLTSKAMSAPDGMIRIPLNEESSKGAGQIEEFLMQFNGEGIQHVAFLTDDLVKTWDALKKIGMRFLTAPGDEYYEMLEGRLPDHGEPVDQLQARGILLDGSSVEGDKRLLLQIFSETLMGPVFFEFIQRKGHPGFGPDSFKVLFEQMERDQVRRGVLTAD
modifications: mutant HPPD polypeptide
[1]
  Control BCF OD440nm: 1.50
  Residual BCF OD440nm [%]: 73%

B5: 102 (protein)
chain: MADLYENPMGLMGFEFIEFASPTPGTLEPIFEIMGFTKVATHRSKNVHLYRQGEINLILNNEPNSIASYFAAEHGPSVCGMAFRVKDSQKAYNRALELGAQPIHIDTGPMELNLPAIKGIGGAPLYLIDRFGEGSSIYDIDFVYLEGVERNPVGAGLKVIDHLTHNVYRGRMVYWANFYEKLFNFREARYFDIKGEYTGLTSKAMSAPDGMIRIPLNEESSKGAGQIEEFLMQFNGEGIQHVAFLTDDLVKTWDALKKIGMRFLTAPRDEYYEMLEGRLPDHGEPVDQLQARGILLDGSSVEGDKRLLLQIFSERLMGPVFFEFIQRKGDDGFGPHSFKVLFEQMERDQVRRGVLTAD
modifications: mutant HPPD polypeptide
[1]
  Control BCF OD440nm: 2.47
  Residual BCF OD440nm [%]: 26%

B6: 107 (protein)
chain: MADLYENPMGLMGFEFIEFASPTPGTLEPIFEIMGFTKVATHRSKNVHLYRQGEINLILNNEPNSIASYFAAEHGPSVCGMAFRVKDSQKAYNRALELGAQPIHIDTGPMELNLPAIKGIGGAPLYLIDRFGEGSSIYDIDFVYLEGVERNPVGAGLKVIDHLTHNVYRGRMVYWANFYEKLFNFREARYFDIKGEYTGLTSKAMSAPDGMIKIPLNEESSKGAGQIEEFLMQFNGEGIQHVAFLTDDLVKTWDALKKIGMRFMTAPGDEYYEMLEGRLPDHGEPVDQLQARGILLDGSSVEGDKRLLLQIFSETLMGPVFFEFIQRKGDDGFGPHSVKRLFESVERDQVRRGVLTAD
modifications: mutant HPPD polypeptide
[1]
  Control BCF OD440nm: 1.38
  Residual BCF OD440nm [%]: 84%

B7: SEQ ID NO: 30: mutant HPPD polypeptide: P268S T270S E335P G336H N337S A340V I345K (protein)
chain: MADLYENPMGLMGFEFIEFASPTPGTLEPIFEIMGFTKVATHRSKNVHLYRQGEINLILNNEPNSIASYFAAEHGPSVCGMAFRVKDSQKAYNRALELGAQPIHIDTGPMELNLPAIKGIGGAPLYLIDRFGEGSSIYDIDFVYLEGVERNPVGAGLKVIDHLTHNVYRGRMVYWANFYEKLFNFREARYFDIKGEYTGLTSKAMSAPDGMIRIPLNEESSKGAGQIEEFLMQFNGEGIQHVAFLTDDLVKTWDALKKIGMRFMTAPSDSYYEMLEGRLPDHGEPVDQLQARGILLDGSSVEGDKRLLLQIFSETLMGPVFFEFIQRKGDDGFGPHSFKVLFESKERDQVRRGVLTAD
modifications: mutant HPPD polypeptide
notes: mutant HPPD polypeptide: P268S T270S E335P G336H N337S A340V I345K
[2]; 75th minus 25th percentile
  leaf damage score, Interquartile range: 5.0
[2]; scale 0 (no damage) to 100 (complete bleaching)
  leaf damage score, 25th percentile: 10.0
[2]; scale 0-100
  leaf damage score, 75th percentile: 15.0
  leaf damage score, 90th percentile: 25.0
  leaf damage score, Median: 15.0
